The assay relates to hPSC-SMPCs. Put plainly: Passaging and expansion of hPSC-SMPCs with added factors, gene expression. The format is cell-based, human. Here is the method: At day 50, myogenic genes PAX7, MYF5, MYOD, MYOG, and MYH3 were measured by QPCR and expressed as fold-change versus day 35 of directed differentiation. […] Subsequently, IGF-1 was added to N2 media in all experiments (FIGS. 5-8, 10A-10D, 10F, 11, and 12A-12E). […] Subsequently, FGF2 was added to SkBM-2 media in experiments (FIGS. 5-8, 10A-10D, 10F, 11, and 12A-12E).
HiPSC-SMPC subpopulations enrich for PAX7 but activate and increase expression of MYOD after passaging. […] (FIG. 9A).

B1: WNT7A: Wnt family member added to SKBM2 expansion media (protein, UniProt O00755 32-349, looked up)
Protein Wnt-7a: LGASIICNKIPGLAPRQRAICQSRPDAIIVIGEGSQMGLDECQFQFRNGRWNCSALGERTVFGKELKVGSREAAFTYAIIAAGVAHAITAACTQGNLSDCGCDKEKQGQYHRDEGWKWGGCSADIRYGIGFAKVFVDAREIKQNARTLMNLHNNEAGRKILEENMKLECKCHGVSGSCTTKTCWTTLPQFRELGYVLKDKYNEAVHVEPVRASRNKRPTFLKIKKPLSYRKPMDTDLVYIEKSPNYCEEDPVTGSVGTQGRACNKTAPQASGCDLMCCGRGYNTHQYARVWQCNCKFHWCCYVKCNTCSERTEMYTCK
As to B1, the “stemness factors HEYL and CJUN” value (passaged SMPCs in SKBM2) is listed as “stabilize or increase stemness factors”. For the setting “passaged SMPCs, compared to SKBM2 alone”, the “PAX7 expression during expansion” value was “rescues PAX7 expression”.

These data come from patent publication US12365875B2, “Methods for generating skeletal muscle progenitor cells” (The Regents of the University of California, priority 2017, dated 2025).
